The supplement of paper PMC12338614
± gives the uncertainty stated by the source.

B1: library; numbered along this chain (parent)
chain: MEVVDPQQLGMFTEGELMSVGMDTFIHRIDSTEVIYQPRRKRAKLIGKYLMGDLLGEGSYGKVKEVLDSETLCRRAVKILKKKKLRRIPNGEANVKKEIQLLRRLRHKNVIQLVDVLYNEEKQKMYMVMEYCVCGMQEMLDSVPEKRFPVCQAHGYFCQLIDGLEYLHSQGIVHKDIKPGNLLLTTGGTLKISDLGVAEALHPFAADDTCRTSQGSPAFQPPEIANGLDTFSGFKVDIWSAGVTLYNITTGLYPFEGDNIYKLFENIGKGSYAIPGDCGPPLSDLLKGMLEYEPAKRFSIRQIRQHSWFRKKHPPAEAPVPIPPSPDTKDRWRSMTVVPYLEDLHGADEDEDLFDIEDDIIYTQDFTVPGQVPEEEASHNGQRRGLPKAVCMNGTEAAQLSTKSRAEGRAPNPARKACSASSKIRRLSACKQQ

Variants of: B1
Experiment: STK11 functional score (HeLa growth suppression), rescaled enrichment; synonymous median = 1, nonsense median = 0 (normalised score)
Conditions: with HeLa; variant type: missense
Summary of the method: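 The values are functional scores: wild-type-corrected log ratios of post- versus pre-selection abundance, rescaled to synonymous and nonsense medians, merged over codons and replicate transfections, and carrying bootstrapped error. They derive from codon-randomised (POPCode), codon-optimised STK11 libraries that Bxb1 integrated at an AAVS1 landing pad in HeLa, with three transfections for each of three regions. Sequencing of tiled gDNA amplicons ran on NextSeq, at ~2 million reads per tile.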

Compared with E130T, E130V is lower in STK11 functional score: 1.33 ± 0.34 for the first, 0.458 ± 0.082 for the second.

E130I and E130G are within error of each other in STK11 functional score: 0.376 ± 0.28 for the first, 0.45 ± 0.39 for the second.

Going from E130M to E130K, the STK11 functional score rises from 0.0424 ± 0.11 to 1.36 ± 0.14.

E130P and E130Y are within error of each other in STK11 functional score: 0.365 ± 0.27 for the first, 0.104 ± 0.12 for the second.

E130C and E130R are within error of each other in STK11 functional score: 0.373 ± 0.08 for the first, 0.369 ± 0.14 for the second.

Compared with E130W, E130L is higher in STK11 functional score: -0.0647 ± 0.079 for the first, 0.308 ± 0.083 for the second.

First: E130S
Second: E130Q
The STK11 functional score of the first is higher: 1.4 ± 0.09 for the first, 0.94 ± 0.3 for the second.

E130F and C134A are within error of each other in STK11 functional score: 0.993 ± 0.35 for the first, 1.1 ± 0.081 for the second.

Compared with C134W, C134E is higher in STK11 functional score: 0.131 ± 0.097 for the first, 1.45 ± 0.2 for the second.

Compared with C134F, C134S is higher in STK11 functional score: 0.425 ± 0.078 for the first, 1.49 ± 0.081 for the second.

C134T and C134Y are within error of each other in STK11 functional score: 1.61 ± 0.28 for the first, 1.15 ± 0.92 for the second.

Compared with C134P, C134M is lower in STK11 functional score: 1.62 ± 0.19 for the first, 0.248 ± 0.08 for the second.

C134V and C134G are within error of each other in STK11 functional score: 0.604 ± 0.11 for the first, 0.564 ± 0.14 for the second.

Going from C134L to C134I, the STK11 functional score rises from 0.479 ± 0.083 to 1.42 ± 0.084.

Going from C134Q to C134R, the STK11 functional score rises from 0.746 ± 0.38 to 1.52 ± 0.09.

First: Y131Q
Second: Y131V
The STK11 functional score of the first is lower: -0.0871 ± 0.078 for the first, 0.785 ± 0.087 for the second.

Y131G and Y131I are within error of each other in STK11 functional score: 0.769 ± 0.28 for the first, 1.2 ± 0.3 for the second.

Compared with Y131H, Y131E is lower in STK11 functional score: 1.2 ± 0.44 for the first, 0.174 ± 0.082 for the second.

First: Y131W
Second: Y131D
The STK11 functional score of the first is higher: 0.739 ± 0.093 for the first, 0.0798 ± 0.094 for the second.

First: Y131C
Second: Y131S
The STK11 functional score of the first is lower: 0.51 ± 0.24 for the first, 1.18 ± 0.22 for the second.

First: Y131A
Second: Y131M
The STK11 functional score of the first is higher: 0.676 ± 0.19 for the first, -0.137 ± 0.13 for the second.

Going from Y131L to Y131R, the STK11 functional score falls from 1.36 ± 0.18 to 0.218 ± 0.086.

Q137S and Q137L are within error of each other in STK11 functional score: 1.42 ± 0.23 for the first, 1.27 ± 0.084 for the second.

First: Q137H
Second: Q137M
The STK11 functional score of the first is lower: 0.922 ± 0.5 for the first, 1.54 ± 0.059 for the second.

First: Q137D
Second: Q137T
The STK11 functional score of the first is lower: 0.482 ± 0.11 for the first, 1.6 ± 0.28 for the second.

Compared with Q137W, Q137K is lower in STK11 functional score: 1.25 ± 0.087 for the first, 0.752 ± 0.41 for the second.

Q137G and Q137I are within error of each other in STK11 functional score: 0.734 ± 0.14 for the first, 0.934 ± 0.38 for the second.

Going from Q137E to Q137N, the STK11 functional score rises from 0.452 ± 0.43 to 1.62 ± 0.28.

First: Q137R
Second: Q137V
The STK11 functional score of the first is lower: 0.73 ± 0.12 for the first, 1.27 ± 0.12 for the second.

Q137Y and Q137A are within error of each other in STK11 functional score: 0.779 ± 0.3 for the first, 1.02 ± 0.15 for the second.

Compared with Q137P, M127G is lower in STK11 functional score: 1.19 ± 0.32 for the first, 0.516 ± 0.14 for the second.

Going from M127I to M127N, the STK11 functional score rises from 0.605 ± 0.22 to 1.63 ± 0.19.

First: M127V
Second: M127R
The STK11 functional score of the first is higher: 0.95 ± 0.26 for the first, 0.302 ± 0.094 for the second.

Going from M127H to M127L, the STK11 functional score falls from 1.63 ± 0.2 to 0.382 ± 0.08.

M127S and M127W are within error of each other in STK11 functional score: 0.857 ± 0.15 for the first, 0.627 ± 0.31 for the second.

M127T and M127P are within error of each other in STK11 functional score: 1.32 ± 0.48 for the first, 0.82 ± 0.4 for the second.

M127Y and V133T are within error of each other in STK11 functional score: 1.24 ± 0.2 for the first, 1 ± 0.41 for the second.

V133I and V133P are within error of each other in STK11 functional score: 1.24 ± 0.26 for the first, 1.53 ± 0.38 for the second.

First: V133S
Second: V133R
The STK11 functional score of the first is higher: 1.06 ± 0.3 for the first, 0.519 ± 0.12 for the second.

Going from V133Y to V133L, the STK11 functional score falls from 1.55 ± 0.39 to 0.982 ± 0.085.

V133D and V133A are within error of each other in STK11 functional score: 1.53 ± 0.15 for the first, 1.41 ± 0.4 for the second.

Compared with V133H, V133E is lower in STK11 functional score: 1.47 ± 0.49 for the first, 0.588 ± 0.28 for the second.

Compared with V133C, V133W is lower in STK11 functional score: 1.35 ± 0.33 for the first, 0.452 ± 0.079 for the second.

V133G and V133N are within error of each other in STK11 functional score: 1.14 ± 0.091 for the first, 1.17 ± 0.15 for the second.

V128G and V128R are within error of each other in STK11 functional score: 0.233 ± 0.1 for the first, 0.15 ± 0.084 for the second.

Compared with V128N, V128P is lower in STK11 functional score: 1.28 ± 0.32 for the first, -0.00512 ± 0.14 for the second.

V128F and V128C are within error of each other in STK11 functional score: 1.13 ± 0.21 for the first, 1.15 ± 0.1 for the second.

Going from V128I to V128S, the STK11 functional score falls from 1.63 ± 0.36 to 0.466 ± 0.12.

V128W and V128Q are within error of each other in STK11 functional score: 0.804 ± 0.43 for the first, 1.22 ± 0.12 for the second.

V128L and V128H are within error of each other in STK11 functional score: 0.945 ± 0.1 for the first, 0.71 ± 0.17 for the second.

Going from V128Y to V128A, the STK11 functional score falls from 1.41 ± 0.23 to 0.438 ± 0.1.

Going from E138C to E138A, the STK11 functional score rises from 0.386 ± 0.081 to 1.09 ± 0.15.

M129F and M129I are within error of each other in STK11 functional score: 0.993 ± 0.47 for the first, 0.692 ± 0.11 for the second.

M129R and M129D are within error of each other in STK11 functional score: 1.13 ± 0.28 for the first, 1.37 ± 0.36 for the second.

Going from M129C to M129S, the STK11 functional score falls from 1.26 ± 0.13 to 0.731 ± 0.16.

M129G and M129T are within error of each other in STK11 functional score: 0.986 ± 0.11 for the first, 0.97 ± 0.14 for the second.

First: M129N
Second: M129K
The STK11 functional score of the first is lower: 0.571 ± 0.13 for the first, 1.35 ± 0.58 for the second.

Going from M129V to M129L, the STK11 functional score rises from 0.303 ± 0.084 to 0.635 ± 0.09.

M129W and C132Y are within error of each other in STK11 functional score: 0.743 ± 0.079 for the first, 0.597 ± 0.082 for the second.

C132N and C132Q are within error of each other in STK11 functional score: 1.23 ± 0.38 for the first, 1.58 ± 0.14 for the second.

Going from C132F to C132A, the STK11 functional score rises from 0.255 ± 0.089 to 1.47 ± 0.32.

First: C132S
Second: C132E
The STK11 functional score of the first is lower: 0.556 ± 0.09 for the first, 1.06 ± 0.36 for the second.

C132H and C132T are within error of each other in STK11 functional score: 1.16 ± 0.21 for the first, 1.52 ± 0.24 for the second.

C132P and C132R are within error of each other in STK11 functional score: -0.178 ± 0.083 for the first, -0.197 ± 0.084 for the second.

Compared with C132I, C132V is lower in STK11 functional score: 1.32 ± 0.25 for the first, 0.601 ± 0.22 for the second.

C132K and C132L are within error of each other in STK11 functional score: 1.25 ± 0.49 for the first, 0.813 ± 0.2 for the second.

First: C132G
Second: C132W
The STK11 functional score of the first is higher: 0.44 ± 0.083 for the first, -0.606 ± 0.08 for the second.

C132M and G135C are within error of each other in STK11 functional score: 1.35 ± 0.73 for the first, 1.54 ± 0.27 for the second.

G135D and G135I are within error of each other in STK11 functional score: 1.06 ± 0.37 for the first, 1.69 ± 0.39 for the second.

G135F and G135R are within error of each other in STK11 functional score: 1.09 ± 0.08 for the first, 1.38 ± 0.38 for the second.

G135A and G135E are within error of each other in STK11 functional score: 1.56 ± 0.28 for the first, 1.45 ± 0.13 for the second.

G135K and G135L are within error of each other in STK11 functional score: 1.63 ± 0.18 for the first, 1.52 ± 0.15 for the second.

Compared with G135P, G135W is lower in STK11 functional score: 1.7 ± 0.27 for the first, 0.571 ± 0.6 for the second.

First: G135Y
Second: G135H
The STK11 functional score of the first is lower: 1.32 ± 0.09 for the first, 1.63 ± 0.21 for the second.

G135Q and G135S are within error of each other in STK11 functional score: 1.57 ± 0.1 for the first, 1.65 ± 0.17 for the second.

G135N and G135T are within error of each other in STK11 functional score: 1.7 ± 0.41 for the first, 1.66 ± 0.28 for the second.

Compared with G135V, M136H is lower in STK11 functional score: 1.29 ± 0.3 for the first, -0.214 ± 0.081 for the second.

First: M136L
Second: M136A
The STK11 functional score of the first is higher: 0.989 ± 0.083 for the first, 0.691 ± 0.12 for the second.

Going from M136S to M136W, the STK11 functional score falls from 0.0685 ± 0.09 to -0.224 ± 0.078.

M136E and M136K are within error of each other in STK11 functional score: 0.000415 ± 0.084 for the first, 0.279 ± 0.63 for the second.

M136P and M136D are within error of each other in STK11 functional score: -0.132 ± 0.082 for the first, -0.0676 ± 0.092 for the second.

First: M136Q
Second: M136Y
The STK11 functional score of the first is higher: 0.0397 ± 0.082 for the first, -0.238 ± 0.083 for the second.

M136G and M136R are within error of each other in STK11 functional score: -0.14 ± 0.082 for the first, -0.124 ± 0.086 for the second.

M136N was tested, and the STK11 functional score was -0.15 ± 0.087.
